Measured values: the nanobody polyreactivity screen of Harvey et al. (2022)

Experiment: yeast display, Sf9 membrane polyspecificity reagent, FACS + sequencing; frameworks hold sequencing errors
In short: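 Polyreactivity labels are assigned by the sorting gate from which each nanobody was recovered. The gates were low and high (top ~1%), set on anti-HA fluorescence for expression and streptavidin fluorescence for reagent binding. Before sorting, galactose-induced (36–48 hours) yeast display cells were stained for 1 hour at 4 °C with 10% biotinylated, detergent-solubilized Sf9 membrane reagent.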

Sequence | polyreactivity (PSR sort gate)
QVQLVESGGGLVQAGGSLRLSCAASGITIVRNAMGWYRQAPGKERELVAAISSGGSTYYADSVKGRFTISRDNAKISVYLQMNSLKPEDTAVYYCAAVPEYYEYSPYDYWGQGTQVTVSS | low polyreactivity
QVQLVESGGGLVQAGGSLRLSCAASGITIVRYAMGWSRQAPGKERELVAAINRSGGSTYYADSVKGRFTISRDNAKNTVYLQMNSLKPEDTAVYYCAARLYGKYDPPGYYYWGQGTQVTVSS | high polyreactivity
QVQLVESGGGLVQAGGSLRLSCAASGITIYEYAMGWYRQAPGKERELVAAITSGGTTNYADSVKGRFTISRDNAKNTVYLQMNSLKPEDTAVYYCAKDGGEGYDYWGQGTQVTVSS | low polyreactivity
QVQLVESGGGLVQAGGSLRLSCAASGITIYGYAMGWYRQAPGKERELVAAISFRSGSTYYADSVKGRFTISRDNAKNTVYLQMNSLKPEDTAVYYCATDRYYRDDYWGQGTQVTVSS | low polyreactivity
QVQLVESGGGLVQAGGSLRLSCAASGITIYRNAMGWYRQAPGKEMELVAAITRNGGRTYYADSVKGRFTISRDNAKNTVYLQMNSLKPEDTAVDYCAADSGTRNLASYRYYYWGQGTQVTVSS | high polyreactivity
QVQLVESGGGLVQAGGSLRLSCAASGITIYWYAMGWYRQAPGKERELVAAITRSVGSTYYADSVKGRFTISRDNAKNTVYLQMNSLKPEDTAVYYCAADFYYYGFDYWGQGTQVTVSS | low polyreactivity
QVQLVESGGGLVQAGGSLRLSCAASGITLFHYVMGWYRQAPGKERELVADITWRGGNTFYADSVKGRFTISRDNAKNTVYLQMNSLKPEDTAVYYCAVRQAYRTRDYDYWGQGTQVTVSS | high polyreactivity
QVQLVESGGGLVQAGGSLRLSCAASGITLGAYAMGWYRQAPGKERELVARIRIGGSTYYADSVKGRFTISRDNAKNTVYLQMNSLKPEDTAVYYCNRDFWYGVATGREFYLYDYWGQGTQVTVSS | low polyreactivity
QVQLVESGGGLVQAGGSLRLSCAASGITLGYSAMGGYRQAPGKEREFVAGITTSGGTTYYADSVKGRFTISRDNAKNTVYLQMNSLKPEDTAVYYCAVYGGVKRGSFYYWGQGTQVTVSS | low polyreactivity
QVQLVESGGGLVQAGGSLRLSCAASGITLKYYAIGWYIQAPGKERELVAAITRSGVGTYYADSVKGRFTISRDNAKNTVYLQMNSLKPEDTAVYYCAAASYQSRYWNYYWGQGTQVTVSS | high polyreactivity
QVQLVESGGGLVQAGGSLRLSCAASGITLNGYVMGWYRQAPGKEREFVAVISSRGGSTYYADSVKGRFTISRDNAKNTVYLQMNSLKPEDTAVYYCAARWGYSRRGYRGYDYWGQGTQVTVSS | high polyreactivity
QVQLVESGGGLVQAGGSLRLSCAASGITLNRNAMGWYRQAPGKERELVARISRRGGTTYYADSVKGRFSISRDNAKNTVYLQMNSLKPEDTAVYYCNAGPYGGNPFDYWGQGTQVTVSS | high polyreactivity
QVQLVESGGGLVQAGGSLRLSCAASGITLSIYAMGWYRQAPGKERELVAAIDWSDGSTYYADSVKGRFTISRDNAKNTVYLQMNSLKPEDTAVYYCAAEYHWSYWWPTDDYWGQGTQVTVSS | high polyreactivity
QVQLVESGGGLVQAGGSLRLSCAASGITLSVYAMGWYRQAPRKERELVASISSGGTSTYYADSVKGRFTISRDNAKNTVYLLMISLKPEDTAVYYCAAYSYYTGDQYSYDYWGQGTQVTVSS | low polyreactivity
QVQLVESGGGLVQAGGSLRLSCAASGITLTVYTMGWYRQAPGKERKLVAAITYGGTSTYYADSVKGRFTISRDNAKNTVYLQMNSLKPEDTAVYYCNVAFGYSYRGRDYWGQGTQVTVSS | high polyreactivity
QVQLVESGGGLVQAGGSLRLSCAASGITLVFNAMGWYRQAPGKERELVAAITSGGITNYADSVKGRFTISRDNAKNTVYLQMNSLKPEDTAVYYCATDYGYFHYPWCPLWGYEYWGQGTQVTVSS | low polyreactivity
QVQLVESGGGLVQAGGSLRLSCAASGITLVRYAMGWYRQAPGKERELVAAISSSGGSTYYADSVKGRFTISRDTAKNTVYLQMNSLKPEDTAVYYCNAYVHSRRVEFNYWGQGTQVTVSS | high polyreactivity
QVQLVESGGGLVQAGGSLRLSCAASGITLWQSAKGWYRQAPGKERELVAGITDTGDSTYYADSVKGRFTISRDNAKNTVYLQMNSLKPEDTAVYYCAVPRSALLRAPYELYSWGQGTQVTVSS | low polyreactivity
QVQLVESGGGLVQAGGSLRLSCAASGITLYKYTMGWYRQAPGKERELVAAISGGGSTTYADSVKGRFTISRDNAKNTVYLQMNSLKPEDTAVYYCNVPGGKPSYYEEYGYWGQGTQVTVSS | low polyreactivity
QVQLVESGGGLVQAGGSLRLSCAASGITLYRYVMGWYRQAPGKERELVADISGRGTSTYYADSVKGRFTISRDNAKNTVYLQMNSLKPEDTAVYYSNSEYTKTGALVIPYTYYYAEDYWGQGTQVTVSS | low polyreactivity
QVQLVESGGGLVQAGGSLRLSCAASGITLYSYAMGWYRPAPGKERELVAAISWDGGGTYYADSVKGRFTISRDNAKNTVYLQMNSLKPEDTAVYYCAADTQYTDGDSWGQGTQVTVSS | high polyreactivity

Sequence | polyreactivity (PSR sort gate)
QVQLVESGGGLVQAGGSLRLSCAASGITSDFNAMGWYRQAPGKERELVAITWNGGSTYYADSVKGRFTISRDNAKNTVYLQMNSLKPEDSAVYYCAARYRRYNRIYDYWGQGTQVTVSS | high polyreactivity
QVQLVESGGGLVQAGGSLRLSCAASGITSRLYAMGWYRQAPGKERELVAAINSIDGSTNYADSVKGRFTISRDNAKNTVYLQMNSLKPEDTAVYYCNKRYGYTGFSPRYDYWGQGTQVTVSS | low polyreactivity
QVQLVESGGGLVQAGGSLRLSCAASGITSRPNAMGWYRQAPGKERELVAAISGSGGRTYYADSVKGRFTISRDNAKNTVYLQMNSLKPEDTAVYYCNAVGGGRWYEYWGLGTQVTVSS | high polyreactivity
QVQLVESGGGLVQAGGSLRLSCAASGITYRWKAMGWYRQAPGKERELVAAITTRGGGTYYAVSVKGRFTISRDNAKNTVYLQMISLKPEDTAVYYCAAKKSRYPYNYWGQGTQVTVSS | high polyreactivity
QVQLVESGGGLVQAGGSLRLSCAASGITYRYAMGCYRQAPGKERELVAAITSSGASTYYADSVKGRFTISRDNAKNTVYLQMNSLKPEDTAVYYCATPLRKVYGGYEYWGQGTQVTVSS | low polyreactivity
QVQLVESGGGLVQAGGSLRLSCAASGITYRYNAMGWYRQAPGKEREMVAAISTSGGNTYYADSVKGRFTISRDNAKYTVYLQLNSLKPEDTAVYYCAVDGEYWYDYDGDYWGQGTQVTVSS | low polyreactivity
QVQLVESGGGLVQAGGSLRLSCAASGIVRQNPMGWYRQAPGKERELVACISQSGGSTYYADSVKGRFTISRDNAKNTVYLQMNSLKPEDTAVYYCAVVSIWGYDYWGEGTQVTVSS | low polyreactivity
QVQLVESGGGLVQAGGSLRLSCAASGIYGFYAMGWYRQPPRKQRELVAAISSVTSTYYADSVKGRFTISRDNAKNTVYLQMNSLKPEDTAVYYCNAYLYSGGLSYDYWGQGTQVTVSS | low polyreactivity
QVQLVESGGGLVQAGGSLRLSCAASGIYYNAMGWYRQAPGKERELVAAITTGDRTNYADSVKGRFTISRDNAKNTVYLQMYSLIPEDTAVYYCKAVVERLSSTARDFAYDYWGQGTQVNVSS | low polyreactivity
QVQLVESGGGLVQAGGSLRLSCAASGLIFARNAMGWYRQAPGKERELVAAITRRGTSTYYADSVKGRFTISRDNAKNTVYLQMNSLKPEDTAVYYCAARGGGGQRYDYWGQGTQVTVSS | high polyreactivity
QVQLVESGGGLVQAGGSLRLSCAASGLIFARNAMGWYRQAPGKETELVAAISKRGGSTYYADSVKGRFTISRDNAKNTVYLQMNSLKPDDTAVYYCNARYFRWWDMGYWGQGTQVNVSS | high polyreactivity
QVQLVESGGGLVQAGGSLRLSCAASGLIFARYATGWYRQAPGKERELVAAITDTGDITYSADSVKGRFTISRDNAKNTVYLQMNSLKPEDTGVYYCNADGVESVGGVETLYWRGGYWGQGTQVTVSS | low polyreactivity
QVQLVESGGGLVQAGGSLRLSCAASGLIFARYVMGWYRHAPGKERELVADIDKGGGSTYYADSVKGRFTISRDNAKNTDSLQMNSLKPEDSSVYYCIADFDGWWWDDYRGQGTQVTVSS | high polyreactivity
QVQLVESGGGLVQAGGSLRLSCAASGLIFAYNAMGWYRQAPGKERELVAAITGGGDGTYYADSVKGRFTISRDNAKNTVYLQMNSLKPEDTAVYYCAADFGNSPYIKVYYYWGQGTQVTVSS | low polyreactivity
QVQLVESGGGLVQAGGSLRLSCAASGLIFAYNTMGWYRQAPGKERELVAGITSSGSTYYADSVKGRFTISRDNAKNTVYLQMNSLKPEDTAVYYCAAEWDDGRSWYWYYLVGFEYWGQGTQVTVSS | high polyreactivity
QVQLVESGGGLVQAGGSLRLSCAASGLIFDRNAMGWYRQAPGKERELVAAITYSGSRTYYADSVKGRFTISRDNAKNTVYLQMNSLKPEDTAVYYCAARHRYSAGTEYNYWGQGTQVTVSS | high polyreactivity
QVQLVESGGGLVQAGGSLRLSCAASGLIFDSYAMGWYRQAPGKERELVAAITYTGGSTYYADSVKGRFTISRDNAKNTVYLQMNSLKPEDTAVYYCAAVTRYAGRIRYGYWGQGTQVTVSS | high polyreactivity
QVQLVESGGGLVQAGGSLRLSCAASGLIFDSYVMGWYRQAPGKERELVAVISGSGGSTYYADSVKGRFTISRDNAKNTVYLQMNSLKPEDTAVYYCAAQYSAGQYYGYGYWGQGTQVTVSS | high polyreactivity
QVQLVESGGGLVQAGGSLRLSCAASGLIFEPYVMGWYRQAPGKERELVASITWSAGSTYYADSVKGRFTISRDNAKNTVYLQMNSLKPDDTAVYYCAARHGYGWGFSGVPAQGYEYWGQGTQVTVSS | low polyreactivity
QVQLVESGGGLVQAGGSLRLSCAASGLIFFFYAMGWYRQAPGKERELVASISGGGITYYADSVKGRFTISRDNAKNTVYLQMNSLKPEDTAVYYCAARVLDWRGDIHDSEYWGQGTQVTVSS | low polyreactivity
